Experimental data from publication PMC4338613.

What was measured:
Test in all cases: co-IP
[1] = target: LAP-tagged FUS/TLS R521G (human) (UniProt P35637)
[2] = target: LAP-tagged FUS/TLS P525L (human) (UniProt P35637)
[3] = target: LAP-tagged FUS/TLS R495X (human) (UniProt P35637)

Measured: fold reduction of association against wild-type FUS/TLS

Sm-B/D (components of Sm core)
5 fold: all assays above
